In paper PMC4608735, “Inhibition of BACE1 Activity by a DNA Aptamer in an Alzheimer’s Disease Cell Model”:
Blank lines part the entries; values can stand above or below the molecule they belong to.

What was measured:
[1] = molecular target: β-site APP-cleaving enzyme 1 (BACE1) (UniProt P56817)
[2] = molecular target: BACE1 extracellular domain (human, UniProt P56817 46-457); assay: indirect ELISA (plate-coated BACE1); ELISA: BACE1 coated in 1x PBS, 5% BSA block, PBST (0.01% Tween 20, pH 7.4) wash, aptamer 60 min at 37 C; SELEX binding buffer: 1x PBS, 5 mM MgCl2, 0.45% glucose, tRNA, salmon sperm DNA, BSA; FRET: kit Fluorescent Assay Buffer, 37 C, 4 h; conditions: protein: commercial; predicted stem-loop
Chain of BACE1 extracellular domain (P56817 46-457): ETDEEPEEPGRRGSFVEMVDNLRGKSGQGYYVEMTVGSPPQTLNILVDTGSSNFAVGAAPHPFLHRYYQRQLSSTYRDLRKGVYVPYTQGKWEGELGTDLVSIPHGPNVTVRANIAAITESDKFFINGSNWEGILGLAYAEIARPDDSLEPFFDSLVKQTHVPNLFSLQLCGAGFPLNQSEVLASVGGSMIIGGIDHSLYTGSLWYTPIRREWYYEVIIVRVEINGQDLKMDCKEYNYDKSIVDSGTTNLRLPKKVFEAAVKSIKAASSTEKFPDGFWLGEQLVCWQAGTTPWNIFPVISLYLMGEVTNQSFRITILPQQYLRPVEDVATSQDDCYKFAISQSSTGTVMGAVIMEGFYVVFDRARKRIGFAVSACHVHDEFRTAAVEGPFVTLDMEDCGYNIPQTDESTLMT

Chain of β-site APP-cleaving enzyme 1 (BACE1) (P56817 46-501): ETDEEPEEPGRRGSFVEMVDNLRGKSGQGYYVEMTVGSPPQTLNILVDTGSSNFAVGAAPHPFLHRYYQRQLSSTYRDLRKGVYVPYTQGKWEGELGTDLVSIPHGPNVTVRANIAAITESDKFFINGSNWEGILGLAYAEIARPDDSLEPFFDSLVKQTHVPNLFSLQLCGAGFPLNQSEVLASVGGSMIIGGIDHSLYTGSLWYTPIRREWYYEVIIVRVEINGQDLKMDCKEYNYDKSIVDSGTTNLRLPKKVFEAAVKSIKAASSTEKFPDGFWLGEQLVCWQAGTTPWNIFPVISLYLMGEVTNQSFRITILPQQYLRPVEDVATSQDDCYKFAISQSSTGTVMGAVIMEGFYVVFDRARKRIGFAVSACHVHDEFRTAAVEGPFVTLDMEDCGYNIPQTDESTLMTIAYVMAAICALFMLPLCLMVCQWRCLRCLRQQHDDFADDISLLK

IC50 of inhibition of BACE1 activity (cleavage of a fluorescent substrate, FRET assay of the BACE1 Activity Detection Kit, 4 h, 37°C) [1]: 242 nM
Molecule: [Asn670, Sta671, Val672]-Amyloid β/A4 Precursor Protein 770 Fragment 662–675 (from UniProt P05067 662-675) (peptide)

B1: A1 (ssDNA)
DNA: GCAATGGTACGGTACTTCCGTCATCAGCTTGTGATGTGGATGCGAACTGCAAAAGTGCACGCTACTTTGCTAA
Kd [2]: 68.6 ± 8.12 nM

B2: A4 (ssDNA)
DNA: GCAATGGTACGGTACTTCCTGTGTTATTGTTATGTTTTTTCAGTGTAGTCAAAAGTGCACGCTACTTTGCTAA
Kd [2]: 15.3 ± 2.03 nM
